Consider three molecules from article PMC6853952, “MUC4-ErbB2 Oncogenic Complex: Binding studies using Microscale Thermophoresis” (Scientific Reports, 2019).

Some results are limits rather than exact numbers.

The target of assay [1] is eGFP-MUC4β fusion protein (transmembrane β subunit of MUC4) (human) (UniProt Q99102). Kind of assay: MST; normal model, optimised conditions: MPer lysate with the eGFP fusion kept constant around 33 nM, Fc protein titrated 1:1 in PBS with 0.05% P20 from 1 µM to 0.05 nM; 80% MST power, MST-on 30 s; blue LED.
Assay [2] has the same target. Kind of assay: MST; normal model: eGFP fusion in CHO-K1 lysate kept constant, ErbB2-Fc titrated, label-free; lysis buffer RIPA, dilution in PBS; 23 °C.
For assay [3] the target is unchanged. The assay is described as follows: MST; normal model: eGFP fusion in CHO-K1 lysate kept constant, ErbB2-Fc titrated, label-free; lysis buffer MPer, dilution in MST buffer; 23 °C.
Assay [4] has the same target. The assay is described as follows: MST; normal model: eGFP fusion in CHO-K1 lysate kept constant, ErbB2-Fc titrated, label-free; lysis buffer RIPA, dilution in Tris-based MST buffer; 23 °C.
In assay [5] the target is T1, recombinant human ErbB2-Fc chimera (human, UniProt P04626 23-652).
T1 construct: ErbB2 receptor tyrosine kinase, human; extracellular domains, lacks the TM and CT part; Described as a disulfide-linked homodimeric protein; In the reverse model it was labelled on its 6His-tag with RED-tris-NTA dye (not covalent); also called recombinant ErbB2
The assay is described as follows: MST; normal model, optimised conditions: MPer lysate with the eGFP fusion kept constant around 33 nM, Fc protein titrated 1:1 in PBS with 0.05% P20 from 1 µM to 0.05 nM; 80% MST power, MST-on 30 s; blue LED. Conditions: one partner purified.

In assay [6] the target is T1, recombinant human ErbB2-Fc chimera. The assay is described as follows: MST; reverse model: ErbB2-Fc labelled on its 6His-tag with RED-tris-NTA dye kept constant, MPer lysate containing the eGFP fusion titrated 3:1 in PBS with 0.05% P20 (up to about 400 nM); red LED, 80% MST power. To be noted: one partner purified.

Turning to “PD-1-Fc (non-relevant protein containing the same Fc as recombinant ErbB2) (from UniProt Q15116 25-170) (Fc fusion)”, the equilibrium dissociation constant (Kd) (in general, the constant that tells how readily two partners part at equilibrium) in assay [1] is > 20000 nM.
In the case of “recombinant human ErbB2-Fc chimera (from UniProt P04626 23-652) (Fc fusion)”, the Kd in assay [2] was > 20 µM; in assay [3], > 20 µM; in assay [4] it was > 20 µM; in assay [1] it was 131 nM.

B1: eGFP-MUC4_(EGF3+1+2) (truncated mutant encompassing only the EGF domains of MUC4) (domain or fragment, human, UniProt Q99102 5118-5360, looked up)
chain: QNQSCPVNYCYNQGHCYISQTLGCQPMCTCPPAFTDSRCFLAGNNFSPTVNLELPLRVIQLLLSEEENASMAEVNASVAYRLGTLDMRAFLRNSQVERIDSAAPASGSPIQHWMVISEFQYRPRGPVIDFLNNQLLAAVVEAFLYHVPRRSEEPRNDVVFQPISGEDVRDVTALNVSTLKAYFRCDGYKGYDLVYSPQSGFTCVSPCSRGYCDHGGQCQHLPSGPRCSCVSFSIYTAWGEHCE
notes: MUC4, UniProt Q99102; said to hold the three EGF-like domains EGF3, EGF1 and EGF2 with what lies between; source: CHO-K1, transfected (peGFP-C1), selected, in cell lysate, used without further purification
For B1, the values for the Kd in assay [5] and in assay [6] were 79 ± 18 nM and 65 ± 14 nM, respectively.
